Source: patent US20250026813A1

Target: SARS-CoV-2 spike trimer protein (wild type), in the envelope of lentiviral pseudovirus particles (SARS-CoV-2) (UniProt P0DTC2)
Test: cell-based or functional assay

4A8 (antibody)
Fold change relative to SAD S35 antibody: 5.44 fold
